Patent US20080260789A1

Key:
[1] = target: Cav channels of P. americana DUM neurons (Periplaneta americana); test: cell-based or functional assay
[2] = target: α-subunit of the P. americana high conductance calcium-activated potassium channel (pSlo) (Periplaneta americana); test: cell-based or functional assay

rU-ACTX-Hv1a (peptide) gave an IC50 of block of Cav currents in DUM neurons, whole-cell patch clamp [1] of 409 nM and an IC50 of block of pSlo currents in HEK293 cells, whole-cell patch clamp [2] of 579 nM.
